{"source": "the DeepSol protein solubility set"}
{"assay": "soluble on expression in E. coli; label from the status in PepcDB or PDB records"}
{"sequence": "MGSDKIHHHHHHMDVLRCENLKKRFGRRYVVNGVNLEFHRGEIVGLLGPNGAGKTTIFNMILGVVVPTSGKIIFRDVDITKFPVYRRARLGITYLQQETSIFGGLTVRENIDLVLRFHEKDKEKRERKIEELLHEFHLKHLENQPASFLSGGEKRKLELARMMCLNPAFILLDEPFSGIDPKTVKEIQKMTLELKQKNFGIVITDHNVDELVEIADRIYVIYKGEILAEGSPERILEDETVREVYLGT", "soluble on expression in E. coli": "not soluble"}
{"sequence": "MGSDKIHHHHHHMRHELDNPHAHATNNPCIRCLRHADRYARAVVSMLEVFASDKAEAKHNLFLKEGLCDIDKTLRSNDKRDTLRERPRNQTSSAMTLSPEKRARVMQGEILIDLNWLPDGVIGAKGSVFVEAEPPVVWRMLTDYDHLHETMPKVISSRLLETNNQTRIIAQSGKSGIFIFEKTVNFTLKVEEVFPEHLWFSQIGGDFQVYEGEWQLEAVEGKNGHATLLSYQAEIKPDFFAPQFVVSFVQSQDLPTILRAIRSYCEARAKG", "soluble on expression in E. coli": "not soluble"}
{"sequence": "MSDSSHAFSATERAAVYRAIAERRDMRHFSGGSVAPELLARLLEAAHQAPSVGLMQPWRFIRITEPALRRAIHGLVEEERGRTAEALGERSDEFMRLKVEGVLDCAELLVAALMDDRERHVFGRRTLPQMDLASLACAIQNLWLASRAEGLGMGWVSLFDPAALGELLGLPPGSEAVAVLCLGPVAEFYPAPMLALEGWSEPRPLAELVYQNRWGERA", "soluble on expression in E. coli": "not soluble"}
{"sequence": "MDPTDLSFSPDEINKLIETGLNTVEYFTSQQVTGTSSLGKNTIPPGVTGLLTNAAEAKIQESTNHQKGSVGGGAKPKKPRPKIAIVPADDKTVPGKPIPNPLLGLDSTPSTQTVLDLSGKTLPSGSYKGVKLAKFGKENLMTRFIEEPRENPIATSSPIDFKRGRDTGGFHRREYSIGWVGDEVKVTEWCNPSCSPITAAARRFECTCHQCPVTCSECERDT", "soluble on expression in E. coli": "soluble"}
{"sequence": "MTSACGFHLRGDYLLPDEVHEISLTSFDQYSSLTRDVQKQLRMNGIRQVAPTTVTPSLDLISESLNERTLSLYQNSRAAEKELTYNVSYSVLIPGHDLKTYTTTVNRNYLDNPLTALAKSVERDMIEEEMRAQAAEQILRQMARLKADDAPVETSDVITHDDETESKVTTKEVIKSMSTTAETTQLEHHHHHH", "soluble on expression in E. coli": "soluble"}
{"sequence": "MKRFFLKTILAAFCVYVPAILNTAYACTRIVYQGPNGTIITARSMDWKGEIPANLWIFPRGIERNGEAGSTSVKWKSTYGSVITSSWDIASSDGMNEKGLVGNLLWLVESTYPKFVKDKDKPGLAVSLWLQYVLDNFATVSEAVAFLEKEPFVVASSHIPGTAIFATVHLSISDATGDNAIFEYIGGKLVIHHDRSYVTMTNSPVFDEQLAINTYWKNIPGTVMLPGTNRAADRFVRASYYIDAIPKTDNTRVALPSVFSVIRNCSVPLGISSEAEPNISSTRWRTVSDQKNLVYYFDNVLNPNVVWVEFSKIDFSEKAKVKKLTLANNENYSGEASMNFKAALPFTFAGLD", "soluble on expression in E. coli": "not soluble"}
{"sequence": "MGSDKIHHHHHHMSRLVVKNLTKIFSLGFFSKRRIEAVKNVSFEVKEKEIVSLVGESGSGKTTTAKMILRLLPPTSGEIYFEGKDIWKDIKDRESLVEFRRKVHAVFQDPFASYNPFYPVERTLWQAISLLENKPSNKKEALELIKESLFRVGIDPKDVLGKYPHQISGGQKQRIMIARCWILRPLLIVADEPTSMIDASSRGGIIKLLEELREEQGTSIIFITHDLGLAYYVSDNIFVMKNGEIVERGHPDKVVLEPTHEYTKLLVGSIPKLYRKLEDL", "soluble on expression in E. coli": "not soluble"}
{"sequence": "SLSAAEADLAGKSWAPVFANKNANGDAFLVALFEKFPDSANFFADFKGKSVADIKASPKLRDHSSTIFTRLNEFVNNAANAGKMSAMLSQFAKEHVGFGVGSAQFENVRSMFPGFVASVAAPPAGADAAWTKLFGLIIDALKAAGK", "soluble on expression in E. coli": "soluble"}
{"sequence": "MTAATATANGNHSIEDPVVMKVQAASPIQETDFFENLYQMECFRTGEFYLKSGQMTPIYIDLRRIMSSPRVLRMAAQAMCEKIVASNLKFDYVVGVPYAALPLATLVSDILNVPMLMKRKEAKAYGTKQLIEGVYQPGGTVLLVEDVVTSGESIRETAEAIRNENLLVTDAIAVLDRQQGATANLAEDNLNFLSFLTMEKILDGLITKNEMTEERKHEIIAHLAKPF", "soluble on expression in E. coli": "soluble"}
{"sequence": "EAGAMDERTFGKSIEVYTRQICEELLTTAAGNTDAHYKTYRCPLCGNDSVRVFPKIVKCVTDGCGFKVFRELCGTLLSKEYIHALMTDGCTPLLCRLTGKSGKTFNARLKLDKDGGTSFVFDSKPRKPQT", "soluble on expression in E. coli": "not soluble"}
{"sequence": "HDTRKIIAKQLGPHTYLVSGRMEIDDVNERFGLSLPESDDYLTVAGFILNSHQNIPQANEVVEIAPYTFTILRSSSTKIELVKMSIDD", "soluble on expression in E. coli": "not soluble"}
{"sequence": "MMEKNNEVIQTHPLVGWDISTVDSYDALMLRLHYQTPNKSEQEGTEVGQTLWLTTDVARQFISILEAGIAKIESGDFPVNEYRRH", "soluble on expression in E. coli": "not soluble"}
{"sequence": "MSSHENDTPLPVPYTSRLGQPLDAGQTLNVHGKINEGAQVAEINLLQGGGEIGPNTQVILHLKLNFKEKKVILNSYENGVWGKEERESLPFQAGQEFDLRIRVLDEGLEISADNKKIHEFKHRLPFQSIEYLSVRGDLSLNGIHWGGRFYKLPWETAFPAGFLEKGQRVHLYGIPKGDRWSLDLVARNQDILFHFNPRIKDKAVVRNSHRNGFWDTEEREGGFPFKKDVGFDLTIVNEEYSIQIFINRERFGTFQHRTQNPIGDYIGLRIDGEVEVTGIEFSH", "soluble on expression in E. coli": "soluble"}
{"sequence": "MGSDKIHHHHHHMIDLHCHILPNIDDGAKSIDEAIALVALAAEQGVSRMVATPHIHLGIYDNNLQSINAAYHLLCDALALTNIDIQLRAAAEVRVSPEIMLFIEQQQLPFLGRYQQKDVLLLELPSSHIPPGTDKLISWLLAKNVLPMIAHPERNRELQSHPERITPFVRAGCLFQLTAASLIGDMGEAPKQLSEYFIKQKLYSIIGSDCHSLNRRPPKLLQAQHAVTALTDQEYAFALTTSMPGSISNVLFAESSD", "soluble on expression in E. coli": "not soluble"}
{"sequence": "MANPKLPGISESEQALLYAKLNEYNRGRASFKEAGVYLVVLPRPGKPNYSLWLYSPLPEKQSILYIHDLSPDINESLRIASTMFYYSRRCLILMDYNEKRMQSNGDDLIFFGKYRGHFLHEILKVDPAYLSWIAYKFTPKIPKQERFVKIAQAYHSVHLDVMLRKSKEVRRKSRYLGEVNEKLTDLKLKVMRVRLEDDPYKTRVYGTTPQFFVKQILTLNDASGNLVTMSIPSKTPSTVSCTLSGIEHEYRPGEIIYVASARVSRLFESYGSKYTRLSNVKLAIVNAWSSRL", "soluble on expression in E. coli": "not soluble"}
{"sequence": "GPGSMKKCWVFDCAAPGLYCEPRRLLKPFSTDSILDAAGRAFETVEDGLKATTWRTHHAFSARCGLTSVTRSDSTTCGKGVEESSVSRSPEDYREWHADFHLRSPSAEPHVLLSVAPHYLPSRGSGNADDGRKMEVVGSRGRWLKPWRPQTAEEQAAYDAAVLGTPLIWEEPLVLSLDCTADGVFLWSEDHGIYGEKVANRCFERHSSDAGDDSAEFKQEAFLRFRWSEQPPAQTSSVGSGRHEMKEEHVESPNVSKCGELRVFRGQRTKVEAEEPHVERISYEEADVDAGSGGFLWQSVLHRIISCGPVPKEVYFAPYVTLMESGDEVSLL", "soluble on expression in E. coli": "not soluble"}
{"sequence": "SMGTRPRRKKHDYRIALFGGSQPQSCRYFNPKDYSWTDIRCPFEKRRDAACVFWDNVVYILGGSQLFPIKRMDCYNVVKDSWYSKLGPPTPRDSLAACAAEGKIYTSGGSEVGNSALYLFECYDTRTESWHTKPSMLTQRCSHGMVEANGLIYVCGGSLGNNVSGRVLNSCEVYDPATETWTELCPMIEARKNHGLVFVKDKIFAVGGQNGLGGLDNVEYYDIKLNEWKMVSPMPWKGVTVKCAAVGSIVYVLAGFQGVGRLGHILEYNTETDKWVANSKVRAFPVTSCLICVVDTCGANEETLET", "soluble on expression in E. coli": "soluble"}
{"sequence": "MSLVYTEVPKSVATFMETITEKCGEAHQDWAKNFQAAFANTLLTTVKRQEDGTTFLLTGDIPAMWLRDSTAQVRPYLVIAKEDEDLAQMIAGLVKRQFRYICIDPYANAFNETDNHAGHQTDKTEMNGWIWERKYEIDSLCYPVQLAYLLYKNTGMTEQFNSDFVEGVKKILNVFTTEQDHAQSPYLFERDTWRQEDTLVEAGKGTPVGKTGMTWSGFRPSDDACQYGYLVPSNMFAVVILGYIQEIFSDVLEDATIGAIAKKLQEEIEEGIQTFGRTKNQNNETIYAYEVDGLGNASVMDDSNVPNLVAAPYLGYCSTEDEQYLTTRQTLLSKENPYFYEGKYAKGIGSSHTPENYVWPIALAMEGMTTKDKAEKERILDLLVATDAGTHLMHEGFDVDNPENYTREWFSWANMMFCELVMDYFDIRVEKEGGSHHHHHH", "soluble on expression in E. coli": "soluble"}
